Measured values published in patent publication US20230227571A1 (published 2023).
Like-named read-outs stand apart in the source and are kept apart here. Values belong to the binder of their own block, whether it stands above or below them.

Key:
Assay in all cases: SPR (Biacore)
[1] = target: T1, human C5 (purified human complement C5, Complement Technology #A120; also C5 in normal human serum) (human, UniProt P01031 19-673; P01031 678-1676)
[2] = target: T1, human C5 (purified human complement C5, …); remark: listed apart in the source
[3] = target: T1, human C5 (purified human complement C5, …); remark: listed apart in the source
[4] = target: T1, human C5 (purified human complement C5, …); remark: listed apart in the source
[5] = target: T1, human C5 (purified human complement C5, …); remark: listed apart in the source

T1 sequence (P01031 19-673, chain 1 of 2): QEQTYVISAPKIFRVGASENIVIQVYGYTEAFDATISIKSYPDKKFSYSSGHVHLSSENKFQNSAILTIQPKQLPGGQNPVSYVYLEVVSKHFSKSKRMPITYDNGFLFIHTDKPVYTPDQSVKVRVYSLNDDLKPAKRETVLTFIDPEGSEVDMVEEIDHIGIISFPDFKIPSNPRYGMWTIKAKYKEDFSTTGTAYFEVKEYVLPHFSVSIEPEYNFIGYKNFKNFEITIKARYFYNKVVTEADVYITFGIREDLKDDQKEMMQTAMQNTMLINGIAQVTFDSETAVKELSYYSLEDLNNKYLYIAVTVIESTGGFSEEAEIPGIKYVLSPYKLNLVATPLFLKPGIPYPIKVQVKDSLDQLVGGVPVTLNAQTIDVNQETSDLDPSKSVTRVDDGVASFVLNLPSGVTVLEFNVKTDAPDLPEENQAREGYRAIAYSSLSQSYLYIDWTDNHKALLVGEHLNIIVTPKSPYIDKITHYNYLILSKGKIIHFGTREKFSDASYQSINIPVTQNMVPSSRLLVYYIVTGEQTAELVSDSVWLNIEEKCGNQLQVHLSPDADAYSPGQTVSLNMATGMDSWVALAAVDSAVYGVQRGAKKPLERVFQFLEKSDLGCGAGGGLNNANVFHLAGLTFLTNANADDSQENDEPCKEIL
T1 sequence (P01031 678-1676, chain 2 of 2): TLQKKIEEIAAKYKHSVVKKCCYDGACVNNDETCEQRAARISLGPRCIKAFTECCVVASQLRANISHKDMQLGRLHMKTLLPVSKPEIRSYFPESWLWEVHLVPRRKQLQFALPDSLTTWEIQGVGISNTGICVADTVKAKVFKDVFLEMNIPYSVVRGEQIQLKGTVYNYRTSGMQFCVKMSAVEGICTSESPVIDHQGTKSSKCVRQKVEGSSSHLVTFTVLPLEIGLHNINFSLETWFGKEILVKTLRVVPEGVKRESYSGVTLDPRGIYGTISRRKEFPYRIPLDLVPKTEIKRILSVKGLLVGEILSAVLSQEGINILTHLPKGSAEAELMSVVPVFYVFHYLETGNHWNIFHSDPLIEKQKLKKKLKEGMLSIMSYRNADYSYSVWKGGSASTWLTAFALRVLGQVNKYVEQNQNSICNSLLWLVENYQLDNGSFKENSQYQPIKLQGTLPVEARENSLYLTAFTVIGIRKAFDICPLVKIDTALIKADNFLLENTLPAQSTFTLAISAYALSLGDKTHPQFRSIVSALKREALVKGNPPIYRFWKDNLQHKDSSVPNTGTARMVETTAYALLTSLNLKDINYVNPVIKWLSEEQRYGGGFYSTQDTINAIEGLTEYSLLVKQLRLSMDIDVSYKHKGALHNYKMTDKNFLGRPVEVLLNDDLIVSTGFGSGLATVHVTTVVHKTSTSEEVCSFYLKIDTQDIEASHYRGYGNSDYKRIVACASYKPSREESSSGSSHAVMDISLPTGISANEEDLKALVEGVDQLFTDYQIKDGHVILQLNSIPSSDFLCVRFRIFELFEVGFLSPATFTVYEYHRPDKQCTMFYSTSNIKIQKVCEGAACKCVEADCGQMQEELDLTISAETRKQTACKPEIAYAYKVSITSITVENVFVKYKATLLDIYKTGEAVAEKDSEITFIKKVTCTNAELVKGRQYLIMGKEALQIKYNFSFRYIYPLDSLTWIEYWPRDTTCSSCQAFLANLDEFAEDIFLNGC

- Kd [1]: 2.2 nM
B1: anti-human C5 mAb 11D9 (antibody, V domains shown)
VH: EVQLQQSGPEVVKPGASVKISCKASGYTFTDFYMNWVKQSHGKSLEWIGYINPNNGDTSYNQKFKGKATSTVDRSSNTAYMELRSLTSEDSAVYYCARLIFYGNWYFDVWGTGTTVTVSS
VL: EIVLTQSPPTMAASPGEKITITCSASSSISSNYVHWYQQKPGFSPKLLIYRTSNLASGVPVRFSGSGSGTSYSLTIGTMEAEDVATYYCQQGTSIPWTFGGGTKVEINR

- Kd [2]: 0.845 nM
B2: anti-human C5 mAb 2G1 (antibody, V domains shown)
VH: EVQLQQSGPELVKPGASVKISCKASGYTITDYNLDWVKQSHGKSLEWIGDISPNYGYTIYNQKFKDKATLTVDRSSSTAYMELRSLTSEDTAVYYCARRDIRYSGNSYKWYFDVWGTGTTVTVSS
VL: DVQITQSPSYLAASPGETITINCRTSKSISKYLAWYQEKPGKTNKLLIYSGSTLQSGIPSRFRGSGSGTDFTLTISSLEPEDFAMYYCQQHNEYPYTFGGGTKLEIK

- Kd [3]: 2.2 nM
B3: anti-human C5 mAb 9G6 (antibody, V domains shown)
VH: QIQLVQSGPELKKPGETVKISCKASGYTFTEYPMHWVKQAPGKSFKWMGILYTDTGEPTYAEEFRGRFAFSLETSASTAYLQINNLKNEDTATYFCVHSGYVGYWGQGTTLTVSS
VL: DIQMTQSPASLSASVGETVTFTCRASEIIYSYLVWYQQKQGKSPQLLVSNAKTLAEGVPSRFSGSGSGTQFSLKINSLQPEDFGSYYCQHYYGNPPTFGGGTKLEIKR

- Kd [4]: 12.5 nM
B4: anti-human C5 mAb 11C5 (antibody, V domains shown)
VH: EVQLVESGGGLVKPGGSLKLSCAASGFTFTTYAMSWVRQTPEKRLEWVATISAGGTYTYYSDNVKGRFTISRDNAKNNLYLQMSHLKSEDTAMFYCARDPDYYGRSPFAYWGQGTLVTVSA
VL: EIVLTQSPATLSVTPGESVSLSCRASQSISNNLQWYQQKSHESPRLLIKYASQSISGIPSRFSGSGSGTDFTLSINSVETEDFGMYFCQQSNSWPLTFGGGTKVELKR

- Kd [5]: 0.427 nM
B5: anti-human C5 mAb 8E1 (antibody, V domains shown)
VH: QVQLKESGPGLVAPSQSLSITCTVSGFPLNNYGIHWVRQPPGKGLEWLAVIWSDGRTTYNSALNSRLSISKDNSKSQVFFKMNSLQTDDTAMYYCARHDGRGDYSMDYWGQGTSVTVSS
VL: ELVMTQSPASLVVSLGQRATISCRASKGVSTSVYSYMHWYQQKPGQPPKLLIYLASNLESGVPARFSGSGSGTDFSLNIHPVEEEDAATYYCQQSGELPLTFGAGTKLELKR
